Results as given in the supplement of paper PMC10567573.

B1: SCARA5 (parent)
chain: VTEDLRLKDWEHSIALRNISLAKG

Variants of: B1
Assay: protein stability index of a GFP-peptide fusion (GPS, HEK-293T) (PSI 1-6); higher = more stable
Conditions: c terminus: a fixed tail appended
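Further: lentivirally expressed fusions sorted by FACS into six bins by GFP to DsRed ratio, PSI derived from sequencing read proportions per bin multiplied by bin number.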

Variant	protein stability index
VTEDLRLKHWEHSIALRNISLAKG [D9H]	2.71
VTEDLRLKYWEHSIALRNISLAKG [D9Y]	2.69
VTEDLRLKQWEHSIALRNISLAKG [D9Q]	3.31
VTEDLRLKRWEHSIALRNISLAKG [D9R]	3.14
VTEDLRLKIWEHSIALRNISLAKG [D9I]	2.27
VTEDLRLKMWEHSIALRNISLAKG [D9M]	1.96
VTEDLRLKSWEHSIALRNISLAKG [D9S]	3.17
VTEDLRLKFWEHSIALRNISLAKG [D9F]	2.44
VTEDLRLKEWEHSIALRNISLAKG [D9E]	3.17
VTEDLRLKLWEHSIALRNISLAKG [D9L]	2.64
VTEDLRLKTWEHSIALRNISLAKG [D9T]	3.18
VTEDLRLKAWEHSIALRNISLAKG [D9A]	2.94
VTEDLRLKCWEHSIALRNISLAKG [D9C]	3.09
VTEDLRLKPWEHSIALRNISLAKG [D9P]	3.37
VTEDLRLKNWEHSIALRNISLAKG [D9N]	3.12
VTEDLRLKKWEHSIALRNISLAKG [D9K]	2.82
VTEDLRLKGWEHSIALRNISLAKG [D9G]	2.29
VTEDLRLKWWEHSIALRNISLAKG [D9W]	2.22
VTEDLRLKVWEHSIALRNISLAKG [D9V]	3.01
VTEDLRLKDWIHSIALRNISLAKG [E11I]	1.91
VTEDLRLKDWGHSIALRNISLAKG [E11G]	2.87
VTEDLRLKDWNHSIALRNISLAKG [E11N]	3.56
VTEDLRLKDWLHSIALRNISLAKG [E11L]	2.74
VTEDLRLKDWCHSIALRNISLAKG [E11C]	2.47

Variant	protein stability index
VTEDLRLKDWPHSIALRNISLAKG [E11P]	2.92
VTEDLRLKDWDHSIALRNISLAKG [E11D]	3.33
VTEDLRLKDWAHSIALRNISLAKG [E11A]	2.51
VTEDLRLKDWVHSIALRNISLAKG [E11V]	1.8
VTEDLRLKDWMHSIALRNISLAKG [E11M]	2.46
VTEDLRLKDWHHSIALRNISLAKG [E11H]	2.72
VTEDLRLKDWTHSIALRNISLAKG [E11T]	2.75
VTEDLRLKDWWHSIALRNISLAKG [E11W]	2.55
VTEDLRLKDWYHSIALRNISLAKG [E11Y]	2.57
VTEDLRLKDWKHSIALRNISLAKG [E11K]	3.3
VTEDLRLKDWRHSIALRNISLAKG [E11R]	2.91
VTEDLRLKDWFHSIALRNISLAKG [E11F]	2.24
VTEDLRLKDWSHSIALRNISLAKG [E11S]	2.98
VTEDLRLKDWQHSIALRNISLAKG [E11Q]	3.16
VTEDLRLKDWEASIALRNISLAKG [H12A]	3.2
VTEDLRLKDWEWSIALRNISLAKG [H12W]	2.25
VTEDLRLKDWEVSIALRNISLAKG [H12V]	2.44
VTEDLRLKDWETSIALRNISLAKG [H12T]	3.51
VTEDLRLKDWEKSIALRNISLAKG [H12K]	3.61
VTEDLRLKDWESSIALRNISLAKG [H12S]	3.88
VTEDLRLKDWECSIALRNISLAKG [H12C]	2.62
VTEDLRLKDWEQSIALRNISLAKG [H12Q]	3.43
VTEDLRLKDWEMSIALRNISLAKG [H12M]	2.77
VTEDLRLKDWERSIALRNISLAKG [H12R]	3.51

Variant	protein stability index
VTEDLRLKDWEGSIALRNISLAKG [H12G]	3.63
VTEDLRLKDWENSIALRNISLAKG [H12N]	3.7
VTEDLRLKDWEESIALRNISLAKG [H12E]	3.84
VTEDLRLKDWEDSIALRNISLAKG [H12D]	3.75
VTEDLRLKDWEFSIALRNISLAKG [H12F]	2.28
VTEDLRLKDWEYSIALRNISLAKG [H12Y]	2.76
VTEDLRLKDWELSIALRNISLAKG [H12L]	2.38
VTEDLRLKDWEPSIALRNISLAKG [H12P]	3.29
VTEDLRLKDWEISIALRNISLAKG [H12I]	2.4
VTEDLRLHDWEHSIALRNISLAKG [K8H]	3.44
VTEDLRLRDWEHSIALRNISLAKG [K8R]	3.11
VTEDLRLCDWEHSIALRNISLAKG [K8C]	3.25
VTEDLRLYDWEHSIALRNISLAKG [K8Y]	2.83
VTEDLRLTDWEHSIALRNISLAKG [K8T]	3.27
VTEDLRLNDWEHSIALRNISLAKG [K8N]	3.48
VTEDLRLWDWEHSIALRNISLAKG [K8W]	2.57
VTEDLRLPDWEHSIALRNISLAKG [K8P]	3.48
VTEDLRLDDWEHSIALRNISLAKG [K8D]	3.62
VTEDLRLADWEHSIALRNISLAKG [K8A]	3.43
VTEDLRLEDWEHSIALRNISLAKG [K8E]	3.49
VTEDLRLFDWEHSIALRNISLAKG [K8F]	2.85
VTEDLRLLDWEHSIALRNISLAKG [K8L]	3.04
VTEDLRLVDWEHSIALRNISLAKG [K8V]	2.82
VTEDLRLIDWEHSIALRNISLAKG [K8I]	2.87

Variant	protein stability index
VTEDLRLGDWEHSIALRNISLAKG [K8G]	3.18
VTEDLRLMDWEHSIALRNISLAKG [K8M]	2.77
VTEDLRLQDWEHSIALRNISLAKG [K8Q]	2.91
VTEDLRLSDWEHSIALRNISLAKG [K8S]	3.28
VTEDLRLKDWEHSKALRNISLAKG [I14K]	3.86
VTEDLRLKDWEHSCALRNISLAKG [I14C]	3.26
VTEDLRLKDWEHSGALRNISLAKG [I14G]	4.17
VTEDLRLKDWEHSAALRNISLAKG [I14A]	4.04
VTEDLRLKDWEHSLALRNISLAKG [I14L]	3.3
VTEDLRLKDWEHSPALRNISLAKG [I14P]	4.76
VTEDLRLKDWEHSFALRNISLAKG [I14F]	3.21
VTEDLRLKDWEHSQALRNISLAKG [I14Q]	3.91
VTEDLRLKDWEHSNALRNISLAKG [I14N]	3.96
VTEDLRLKDWEHSDALRNISLAKG [I14D]	4.26
VTEDLRLKDWEHSRALRNISLAKG [I14R]	3.64
VTEDLRLKDWEHSMALRNISLAKG [I14M]	3.4
VTEDLRLKDWEHSEALRNISLAKG [I14E]	4.03
VTEDLRLKDWEHSHALRNISLAKG [I14H]	3.47
VTEDLCLKDWEHSIALRNISLAKG [R6C]	3.86
VTEDLALKDWEHSIALRNISLAKG [R6A]	3.63
VTEDLQLKDWEHSIALRNISLAKG [R6Q]	3.79
VTEDLPLKDWEHSIALRNISLAKG [R6P]	3.26
